The assay deals with T1, KRAS G12D peptide on HLA-A*11:01 (human).
T1 peptide: VVGADGVGK
The assay is described as follows: cytokine release.

B1: TRAV4-4*01/BV12-2*01 (TCR)
alpha TRAV4-4/DV10*01 49*01 CDR3: CAADSSNTGYQNFYF
beta TRBV12-2*01 1-2*01 CDR3: CASSLTDPLDSDYTF
On to B1, for which the binding result is recorded as “no recognition”.

Values taken from publication PMC4775432 (2015).
